# Assay results taken from patent publication US20020110800.
# Target: wild-type TrkA, baculovirus-expressed, activated (autophosphorylated) (UniProt P04629)
substance,measurement,value
SHP-1,dephosphorylation of 32P-autophosphorylated Trk in vitro,approximately 5-fold dephosphorylation
